Measurements published in patent US20180179296A1.

Key:
[1] = target: Design 29 L2: D3H44 light chain Q124R (humanized); assay: light chain competition assay: heavy chain co-expressed with L1 and L2, SPR read-out of light-chain tags; competitor Design 29 L1
[2] = target: Design 29 L1: D3H44 light chain Q124E_V133D (humanized); assay: light chain competition assay: heavy chain co-expressed with L1 and L2, SPR read-out of light-chain tags; competitor Design 29 L2
[3] = target: Design 30 L2: D3H44 light chain Q160K_T178R (humanized); assay: light chain competition assay: heavy chain co-expressed with L1 and L2, SPR read-out of light-chain tags; competitor Design 30 L1
[4] = target: Design 30 L1: D3H44 light chain Q124E_Q160E_T180E (humanized); assay: light chain competition assay: heavy chain co-expressed with L1 and L2, SPR read-out of light-chain tags; competitor Design 30 L2
[5] = target: Design 14 L2: D3H44 light chain Q124R_Q160K_T178R (humanized); assay: light chain competition assay: heavy chain co-expressed with L1 and L2, SPR read-out of light-chain tags; competitor Design 14 L1
[6] = target: Design 14 L1: D3H44 light chain Q124E_Q160E_T178D (humanized); assay: light chain competition assay: heavy chain co-expressed with L1 and L2, SPR read-out of light-chain tags; competitor Design 14 L2
[7] = target: tissue factor extracellular domains (human) (UniProt P13726); assay: SPR (ProteOn XPR36), TF immobilised, heterodimer as analyte, 1:1 model
[8] = target: Design 31 L2: D3H44 light chain Q38D_F116A_L135A (humanized); assay: light chain competition assay: heavy chain co-expressed with L1 and L2, SPR read-out of light-chain tags; competitor Design 31 L1
[9] = target: Design 31 L1: D3H44 light chain Q38R_L135W (humanized); assay: light chain competition assay: heavy chain co-expressed with L1 and L2, SPR read-out of light-chain tags; competitor Design 31 L2
[10] = target: Design 32 L2: D3H44 light chain Q38E_F98W (humanized); assay: light chain competition assay: heavy chain co-expressed with L1 and L2, SPR read-out of light-chain tags; competitor Design 32 L1
[11] = target: Design 32 L1: D3H44 light chain Q38R (humanized); assay: light chain competition assay: heavy chain co-expressed with L1 and L2, SPR read-out of light-chain tags; competitor Design 32 L2
[12] = target: Design 26 L2: D3H44 light chain F116A_S131K_L135A (humanized); assay: light chain competition assay: heavy chain co-expressed with L1 and L2, SPR read-out of light-chain tags; competitor Design 26 L1
[13] = target: Design 26 L1: D3H44 light chain L135W (humanized); assay: light chain competition assay: heavy chain co-expressed with L1 and L2, SPR read-out of light-chain tags; competitor Design 26 L2
[14] = target: D3H44 light chain, wild type (Design 12 L2) (humanized); assay: light chain competition assay: heavy chain co-expressed with L1 and L2, SPR read-out of light-chain tags; competitor Design 12 L1
[15] = target: Design 12 L1: D3H44 light chain L89R_F98W (humanized); assay: light chain competition assay: heavy chain co-expressed with L1 and L2, SPR read-out of light-chain tags; competitor Design 12 L2 (WT)
[16] = target: Design 27 L2: D3H44 light chain F118W_Q124E_V133S_S176A_T178S_T180E (humanized); assay: light chain competition assay: heavy chain co-expressed with L1 and L2, SPR read-out of light-chain tags; competitor Design 27 L1
[17] = target: Design 27 L1: D3H44 light chain F116A_V133G_S176F_T178A (humanized); assay: light chain competition assay: heavy chain co-expressed with L1 and L2, SPR read-out of light-chain tags; competitor Design 27 L2
[18] = target: Design 28 L2: D3H44 light chain F118W_V133S_S176A_T180E (humanized); assay: light chain competition assay: heavy chain co-expressed with L1 and L2, SPR read-out of light-chain tags; competitor Design 28 L1
[19] = target: Design 28 L1: D3H44 light chain F116A_S131K_V133G_S176F_T178A (humanized); assay: light chain competition assay: heavy chain co-expressed with L1 and L2, SPR read-out of light-chain tags; competitor Design 28 L2
[20] = target: Design 11 L2: D3H44 light chain S176L (humanized); assay: light chain competition assay: heavy chain co-expressed with L1 and L2, SPR read-out of light-chain tags; competitor Design 11 L1
[21] = target: Design 11 L1: D3H44 light chain V133S (humanized); assay: light chain competition assay: heavy chain co-expressed with L1 and L2, SPR read-out of light-chain tags; competitor Design 11 L2
[22] = target: Design 13 L2: D3H44 light chain V133A_Q160K_T178R (humanized); assay: light chain competition assay: heavy chain co-expressed with L1 and L2, SPR read-out of light-chain tags; competitor Design 13 L1
[23] = target: Design 13 L1: D3H44 light chain Q124E_V133W_Q160E_T180E (humanized); assay: light chain competition assay: heavy chain co-expressed with L1 and L2, SPR read-out of light-chain tags; competitor Design 13 L2
[24] = target: Design 15 L2: D3H44 light chain Q160K_T178R (humanized); assay: light chain competition assay: heavy chain co-expressed with L1 and L2, SPR read-out of light-chain tags; competitor Design 15 L1
[25] = target: Design 15 L1: D3H44 light chain Q124E_Q160E_T178D (humanized); assay: light chain competition assay: heavy chain co-expressed with L1 and L2, SPR read-out of light-chain tags; competitor Design 15 L2

Design 29 H1: D3H44 heavy chain L143K_D146G
H1 Readout [1]: 1%
H1 Readout [2]: 93%

Design 30 H2: D3H44 heavy chain L143E_K145T
H2 Readout [3]: 102%
H2 Readout [4]: 1%

Design 14 H2: D3H44 heavy chain K147E_D148G_Q175D_S183L
H2 Readout [5]: 74%
H2 Readout [6]: 2%

Design 15 H1-L1 heterodimer (D3H44 heavy D146G_Q175R, light Q124E_Q160E_T178D) (Fab)
Kd [7]: 0.082 nM

Design 31 H2: D3H44 heavy chain Q39R_A139W
H2 Readout [8]: 78%
H2 Readout [9]: 1%

Design 32 H2: D3H44 heavy chain Q39R
H2 Readout [10]: 93%
H2 Readout [11]: 1%

Design 30 H2-L2 heterodimer (D3H44 heavy L143E_K145T, light Q160K_T178R) (Fab)
Kd [7]: 0.06 nM

Wild-type D3H44 heterodimer (anti-tissue factor Fab, one heavy chain and one light chain)
Kd [7]: 0.052 nM

Design 30 H1: D3H44 heavy chain D146G_Q179K
H1 Readout [3]: 1%
H1 Readout [4]: 96%

Design 26 H1: D3H44 heavy chain A139G_V190A
H1 Readout [12]: 1%
H1 Readout [13]: 92%

Design 11 H2-L2 heterodimer (D3H44 heavy F174V_P175S_S188G, light S176L) (Fab)
Kd [7]: 0.04 nM

Design 32 H1: D3H44 heavy chain Q39E
H1 Readout [10]: 1%
H1 Readout [11]: 98%

Design 31 H1-L1 heterodimer (D3H44 heavy Q39D_A139G_V190A, light Q38R_L135W) (Fab)
Kd [7]: 0.025 nM

Design 11 H1-L1 heterodimer (D3H44 heavy S188L_V190Y, light V133S) (Fab)
Kd [7]: 0.043 nM

Design 12 H1: D3H44 heavy chain V37E_F100D
H1 Readout [14]: 10%
H1 Readout [15]: 99%

Design 14 H1: D3H44 heavy chain D148G_S181R
H1 Readout [5]: 1%
H1 Readout [6]: 84%

Design 27 H2: D3H44 heavy chain S186K_S188H_V190G
H2 Readout [16]: 85%
H2 Readout [17]: 12%

Design 28 H1: D3H44 heavy chain A139V_K145L_Q179E_S188G_V190S
H1 Readout [18]: 4%
H1 Readout [19]: 85%

Design 11 H1: D3H44 heavy chain S188L_V190Y
H1 Readout [20]: 24%
H1 Readout [21]: 83%

Design 11 H2: D3H44 heavy chain F174V_P175S_S188G
H2 Readout [20]: 98%
H2 Readout [21]: 1%

D3H44 heavy chain, wild type (Design 12 H2)
H2 Readout [14]: 88%
H2 Readout [15]: 15%

Design 13 H1-L1 heterodimer (D3H44 heavy L143A_D144G_Q179R, light Q124E_V133W_Q160E_T180E) (Fab)
Kd [7]: 0.087 nM

Design 15 H2-L2 heterodimer (D3H44 heavy K147T_Q175D_S183L, light Q160K_T178R) (Fab)
Kd [7]: 0.071 nM

Design 13 H2: D3H44 heavy chain K145T_Q179D_S188F
H2 Readout [22]: 87%
H2 Readout [23]: 14%

Design 27 H1: D3H44 heavy chain A139I_K145T_D146G_Q179E_S188G_V190S
H1 Readout [16]: 1%
H1 Readout [17]: 67%

Design 15 H2: D3H44 heavy chain K147T_Q175D_S183L
H2 Readout [24]: 83%
H2 Readout [25]: 24%

Design 30 H1-L1 heterodimer (D3H44 heavy D146G_Q179K, light Q124E_Q160E_T180E) (Fab)
Kd [7]: 0.024 nM

Design 13 H1: D3H44 heavy chain L143A_D144G_Q179R
H1 Readout [22]: 1%
H1 Readout [23]: 104%

Design 29 H2: D3H44 heavy chain L143E_K145T
H2 Readout [1]: 102%
H2 Readout [2]: 1%

Design 28 H2: D3H44 heavy chain A139W_S186K_S188A
H2 Readout [18]: 94%
H2 Readout [19]: 1%

Design 31 H1: D3H44 heavy chain Q39D_A139G_V190A
H1 Readout [8]: 1%
H1 Readout [9]: 106%

Design 15 H1: D3H44 heavy chain D146G_Q175R
H1 Readout [24]: 1%
H1 Readout [25]: 93%

Design 13 H2-L2 heterodimer (D3H44 heavy K145T_Q179D_S188F, light V133A_Q160K_T178R) (Fab)
Kd [7]: 0.086 nM

Design 26 H2: D3H44 heavy chain A139W_K145Y_Q175E
H2 Readout [12]: 106%
H2 Readout [13]: 1%
